Results taken from patent US20180021429A1, “ANTICANCER AGENTS OR ANTIMETASTATIC AGENTS USING FSTL1 AND COMBINATION DRUG THEREOF” (PHARMA FOODS INTERNATIONAL CO., LTD., priority 2015, published 2018).

Assays:
mouse FSTL1 [1] = biological target: T1, mouse FSTL1 (Mus musculus, UniProt Q62356); test: ELISA binding activity of purified antibody against mouse FSTL1 (Example 2); settings: FIG. 1B/31B
T1 construct: AAA linker + 10xHis (C); made in house; host or cells: Expi293 (transient expression; purified from culture supernatant on HisPur Cobalt Resin)
T1 sequence (Q62356 with tags, fused parts or gaps): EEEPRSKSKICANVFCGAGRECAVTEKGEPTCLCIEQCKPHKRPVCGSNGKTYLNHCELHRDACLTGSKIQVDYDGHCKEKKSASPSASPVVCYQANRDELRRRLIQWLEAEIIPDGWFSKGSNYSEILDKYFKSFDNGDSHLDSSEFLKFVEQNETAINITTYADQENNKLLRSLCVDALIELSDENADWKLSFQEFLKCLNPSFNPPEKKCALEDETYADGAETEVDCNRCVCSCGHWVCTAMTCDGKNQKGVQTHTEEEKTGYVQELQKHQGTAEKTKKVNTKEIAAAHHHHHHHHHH
Description: (§1) The reactivity of the obtained antibody clones described above with FSTL1 was evaluated by ELISA under the following conditions.
(Table 2 ELISA conditions for binding activity evaluation of purified antibody) Antibodies used: anti-dinitrophenyl (DNP) antibody (negative control), #5-2, #5-3, #5-8, #5-10, #5-43, #6-55, and #7-34
FIGS. 2 and 3 show results of evaluating binding activity under the condition of Table 3 as to clones differing in screening and antibody purification timings.
(§2) Antibodies used: anti-dinitrophenyl (DNP) antibody (negative control), #5-2, #5-3, #5-8, #5-10, #5-43, #6-55, and #7-34
FIGS. 32 and 33 show results of evaluating binding activity under the condition of Table 3 as to clones differing in screening and antibody purification timings.

[2] = system: induction of mesenchymal stem cells (MSCs) by FSTL1; test: Inhibitory activity against MSC induction, ALCAM-/PDGFRA-positive cells (Example 4); type: cell-based; settings: mouse bone marrow cells; FSTL1 50 ng/mL; antibody 10 μg/mL; 11 days; vs control antibody
Description: It is known that when bone marrow cells are stimulated with FSTL1, mesenchymal stem cells (MSCs) having pluripotency or self-proliferative capacity grow (Cancer Research 73: 6185, 2013). Thus, 2×10^7 cells/well of bone marrow cells collected from the thigh bone of a C57BL/6 mouse were suspended in 3 mL/well of RPMI1640 (GIBCO/Thermo Fisher Scientific Inc., Cat. No. C11875500BT) medium containing 2% fetal bovine serum, supplemented with 50 ng/mL (final concentration) of FSTL1 (R&D Systems, Inc. Cat#1694-FN-050) and 10 μg/mL of the anti-FSTL1 antibody (#5-2, #5-3, #5-8, #5-10, #5-43, #6-55, or #7-34) or its isotype mouse IgG (anti-DNP antibody) as a control antibody “Control”, and cultured under stimulation (6-well plate). 11 days thereafter, the number of cells was counted while the cells were stained with a PE-labeled anti-ALCAM antibody
(eBioscience, Cat. No. 12-1661-82) and a PE-labeled anti-PDGFRA antibody (eBioscience, Cat#12-1401-81) in order to examine the expression of MSC markers, and the contents of ALCAM-positive cells and PDGFR-positive cells were analyzed by flow cytometry using FACScan (Becton, Dickinson and Company, Code. BECTON-DICKINSON-FACSCAN) to calculate the number of each positive cell per culture.
It is known that when bone marrow cells are stimulated with FSTL1, mesenchymal stem cells (MSCs) having pluripotency or self-proliferative capacity grow (Cancer Research 73: 6185, 2013). […] 11 days thereafter, the number of cells was counted while the cells were stained with a PE-labeled anti-ALCAM antibody (eBioscience, Cat. No. 12-1661-82) and a PE-labeled anti-PDGFRA antibody (eBioscience, Cat#12-1401-81) in order to examine the expression of MSC markers, and the contents of ALCAM-positive cells and PDGFR-positive cells were analyzed by flow cytometry using FACScan (Becton, Dickinson and Company, Code. BECTON-DICKINSON-FACSCAN) to calculate the number of each positive cell per culture.

mouse FSTL1 [3] = biological target: T1, mouse FSTL1; test: ELISA, binding activity of purified antibody against mouse FSTL1 (Example 2); settings: cross reactivity test; antibody diluted from 1000 ng/ml
Description: as §1, §2
FIGS. 64 and 65 show results of evaluating binding activity under the condition of Table 3 as to clones differing in screening and antibody purification timings.

FSTL1 = biological target: T2, FSTL1 (Homo sapiens, UniProt Q12841); test: Biacore T-200 affinity of mouse chimeric antibodies for human FSTL1 (Example 33); type: binding
T2 sequence (Q12841 21-308): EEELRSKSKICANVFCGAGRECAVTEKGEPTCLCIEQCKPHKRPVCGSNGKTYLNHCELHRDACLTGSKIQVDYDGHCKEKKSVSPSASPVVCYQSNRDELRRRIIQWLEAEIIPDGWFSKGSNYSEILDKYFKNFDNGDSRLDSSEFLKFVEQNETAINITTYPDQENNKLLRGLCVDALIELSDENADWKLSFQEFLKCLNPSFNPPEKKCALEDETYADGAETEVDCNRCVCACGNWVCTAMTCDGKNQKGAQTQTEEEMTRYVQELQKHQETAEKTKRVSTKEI
Description: The mouse chimeric antibodies were immobilized onto Sensor Chip CM5 (GE Healthcare Japan Corp., BR-1005-30) using Mouse Antibody Capture Kit (GE Healthcare Japan Corp., BR-1008-38), and their affinity for human FSTL1 was calculated using Biacore T-200 (GE Healthcare Japan Corp.).
First, the exhaustive activity comparison of the obtained antibodies was conducted with the human FSTL1 concentration fixed to 10 μg/ml (Table 33-1, FIG. 122).
Next, the KD values of clone #6-55, #7-34, and #13 presumed to have high affinity in FIG. 122 were calculated with the antigen concentration adjusted to 0 to 20 μg/ml (Table 35-2).

B1: #6-55: chicken-mouse chimeric anti-FSTL1 antibody clone; variable regions SEQ ID NO: 783 (light), 785 (heavy) (antibody, V domains shown)
VH: AVTLDESGGGLQTPGGALSLVCKGSGFTFTSVTMQWVRQAPGKGLEWVASVCSGSSTYYAPAVKGRATISRDNGQSTVRLQLSNLRPEDTGTYYCAKIAGRARWSCTSAAYNIDAWGHGTEVIVSS
VL: ASTQPSSVSAIPGETVKITCSGGGNNYGWYQQRSPGSAPVTVIYYNDNRPSNIPSRFSGSTSGSTSTLTITGVQADDEAIYYCGSWDSNTDSGIFGAGTTLTVL
modifications: mouse constant regions
binding activity against mouse FSTL1 (mouse FSTL1 [1]): specific and equivalently strong binding activity
inhibitory activity against the expansion of ALCAM-positive cells and PDGFRA-positive cells by FSTL1 [2]: slightly strong tendency of inhibitory activity
binding activity against mouse FSTL1 (mouse FSTL1 [3]): specific and equivalently strong binding activity
affinity in an assay system using surface plasmon resonance (FSTL1): strong affinity
